T1: TNFR1 (Homo sapiens, UniProt P19438)
T1 chain: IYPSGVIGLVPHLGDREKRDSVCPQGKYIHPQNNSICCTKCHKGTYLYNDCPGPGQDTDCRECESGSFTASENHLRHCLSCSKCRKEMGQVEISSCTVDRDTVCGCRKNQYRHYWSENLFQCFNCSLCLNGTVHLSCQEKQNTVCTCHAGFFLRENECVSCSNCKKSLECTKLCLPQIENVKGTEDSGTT


Molecular target: T1, TNFR1
Assay: yeast display SC50

Row | apparent Kd (screen) [nM] | Binder
1 | 9.41 | I87E (designed binder) SMEEEVEKAAKEYEKKKKEAIEKHLEKLKAKDKEAAERFLKELEEAAKEYAKDEAKTMSEEEAKRRAKKYKEKVLLSELSEEEQKEEKEAEEKLVRTILKYVEEAAK
2 | 2.48 | R96F (designed binder) SMEEEVEKAAKEYEKKKKEAIEKHLEKLKAKDKEAAERFLKELEEAAKEYAKDEAKTMSEEEAKRRAKKYKEKVLLSELSEEEQKEIKEAEEKLVFTILKYVEEAAK
3 | 0.446 | K85W (designed binder) SMEEEVEKAAKEYEKKKKEAIEKHLEKLKAKDKEAAERFLKELEEAAKEYAKDEAKTMSEEEAKRRAKKYKEKVLLSELSEEEQWEIKEAEEKLVRTILKYVEEAAK
4 | 0.49 | K88H (designed binder) SMEEEVEKAAKEYEKKKKEAIEKHLEKLKAKDKEAAERFLKELEEAAKEYAKDEAKTMSEEEAKRRAKKYKEKVLLSELSEEEQKEIHEAEEKLVRTILKYVEEAAK
5 | 0.956 | K85M (designed binder) SMEEEVEKAAKEYEKKKKEAIEKHLEKLKAKDKEAAERFLKELEEAAKEYAKDEAKTMSEEEAKRRAKKYKEKVLLSELSEEEQMEIKEAEEKLVRTILKYVEEAAK
6 | 0.593 | E78V (designed binder) SMEEEVEKAAKEYEKKKKEAIEKHLEKLKAKDKEAAERFLKELEEAAKEYAKDEAKTMSEEEAKRRAKKYKEKVLLSVLSEEEQKEIKEAEEKLVRTILKYVEEAAK
7 | 10.4 | V102F (designed binder) SMEEEVEKAAKEYEKKKKEAIEKHLEKLKAKDKEAAERFLKELEEAAKEYAKDEAKTMSEEEAKRRAKKYKEKVLLSELSEEEQKEIKEAEEKLVRTILKYFEEAAK
8 | 0.446 | L75V (designed binder) SMEEEVEKAAKEYEKKKKEAIEKHLEKLKAKDKEAAERFLKELEEAAKEYAKDEAKTMSEEEAKRRAKKYKEKVVLSELSEEEQKEIKEAEEKLVRTILKYVEEAAK
9 | 2.73 | V102Y (designed binder) SMEEEVEKAAKEYEKKKKEAIEKHLEKLKAKDKEAAERFLKELEEAAKEYAKDEAKTMSEEEAKRRAKKYKEKVLLSELSEEEQKEIKEAEEKLVRTILKYYEEAAK
10 | 1.69 | K93I (designed binder) SMEEEVEKAAKEYEKKKKEAIEKHLEKLKAKDKEAAERFLKELEEAAKEYAKDEAKTMSEEEAKRRAKKYKEKVLLSELSEEEQKEIKEAEEILVRTILKYVEEAAK
11 | 16.7 | L99A (designed binder) SMEEEVEKAAKEYEKKKKEAIEKHLEKLKAKDKEAAERFLKELEEAAKEYAKDEAKTMSEEEAKRRAKKYKEKVLLSELSEEEQKEIKEAEEKLVRTIAKYVEEAAK

Continued, binder first:

Row | Binder | apparent Kd (screen) [nM]
12 | E60Y (designed binder) SMEEEVEKAAKEYEKKKKEAIEKHLEKLKAKDKEAAERFLKELEEAAKEYAKDEAKTMSYEEAKRRAKKYKEKVLLSELSEEEQKEIKEAEEKLVRTILKYVEEAAK | 0.718
13 | R65G (designed binder) SMEEEVEKAAKEYEKKKKEAIEKHLEKLKAKDKEAAERFLKELEEAAKEYAKDEAKTMSEEEAKGRAKKYKEKVLLSELSEEEQKEIKEAEEKLVRTILKYVEEAAK | 0.956
14 | K11N (designed binder) SMEEEVEKAANEYEKKKKEAIEKHLEKLKAKDKEAAERFLKELEEAAKEYAKDEAKTMSEEEAKRRAKKYKEKVLLSELSEEEQKEIKEAEEKLVRTILKYVEEAAK | 0.446
15 | R66F (designed binder) SMEEEVEKAAKEYEKKKKEAIEKHLEKLKAKDKEAAERFLKELEEAAKEYAKDEAKTMSEEEAKRFAKKYKEKVLLSELSEEEQKEIKEAEEKLVRTILKYVEEAAK | 22.2
16 | A36R (designed binder) SMEEEVEKAAKEYEKKKKEAIEKHLEKLKAKDKEARERFLKELEEAAKEYAKDEAKTMSEEEAKRRAKKYKEKVLLSELSEEEQKEIKEAEEKLVRTILKYVEEAAK | 0.718
17 | E22Y (designed binder) SMEEEVEKAAKEYEKKKKEAIYKHLEKLKAKDKEAAERFLKELEEAAKEYAKDEAKTMSEEEAKRRAKKYKEKVLLSELSEEEQKEIKEAEEKLVRTILKYVEEAAK | 1.27
18 | K56S (designed binder) SMEEEVEKAAKEYEKKKKEAIEKHLEKLKAKDKEAAERFLKELEEAAKEYAKDEASTMSEEEAKRRAKKYKEKVLLSELSEEEQKEIKEAEEKLVRTILKYVEEAAK | 7.78
19 | A20N (designed binder) SMEEEVEKAAKEYEKKKKENIEKHLEKLKAKDKEAAERFLKELEEAAKEYAKDEAKTMSEEEAKRRAKKYKEKVLLSELSEEEQKEIKEAEEKLVRTILKYVEEAAK | 0.539
20 | K56N (designed binder) SMEEEVEKAAKEYEKKKKEAIEKHLEKLKAKDKEAAERFLKELEEAAKEYAKDEANTMSEEEAKRRAKKYKEKVLLSELSEEEQKEIKEAEEKLVRTILKYVEEAAK | 4.39
21 | A55I (designed binder) SMEEEVEKAAKEYEKKKKEAIEKHLEKLKAKDKEAAERFLKELEEAAKEYAKDEIKTMSEEEAKRRAKKYKEKVLLSELSEEEQKEIKEAEEKLVRTILKYVEEAAK | 3
22 | E60K (designed binder) SMEEEVEKAAKEYEKKKKEAIEKHLEKLKAKDKEAAERFLKELEEAAKEYAKDEAKTMSKEEAKRRAKKYKEKVLLSELSEEEQKEIKEAEEKLVRTILKYVEEAAK | 1.69
23 | S1E (designed binder) EMEEEVEKAAKEYEKKKKEAIEKHLEKLKAKDKEAAERFLKELEEAAKEYAKDEAKTMSEEEAKRRAKKYKEKVLLSELSEEEQKEIKEAEEKLVRTILKYVEEAAK | 0.49
24 | E49H (designed binder) SMEEEVEKAAKEYEKKKKEAIEKHLEKLKAKDKEAAERFLKELEEAAKHYAKDEAKTMSEEEAKRRAKKYKEKVLLSELSEEEQKEIKEAEEKLVRTILKYVEEAAK | 10.4
25 | L25N (designed binder) SMEEEVEKAAKEYEKKKKEAIEKHNEKLKAKDKEAAERFLKELEEAAKEYAKDEAKTMSEEEAKRRAKKYKEKVLLSELSEEEQKEIKEAEEKLVRTILKYVEEAAK | 0.539
26 | E19S (designed binder) SMEEEVEKAAKEYEKKKKSAIEKHLEKLKAKDKEAAERFLKELEEAAKEYAKDEAKTMSEEEAKRRAKKYKEKVLLSELSEEEQKEIKEAEEKLVRTILKYVEEAAK | 0.446
27 | E42R (designed binder) SMEEEVEKAAKEYEKKKKEAIEKHLEKLKAKDKEAAERFLKRLEEAAKEYAKDEAKTMSEEEAKRRAKKYKEKVLLSELSEEEQKEIKEAEEKLVRTILKYVEEAAK | 7.78
28 | E49N (designed binder) SMEEEVEKAAKEYEKKKKEAIEKHLEKLKAKDKEAAERFLKELEEAAKNYAKDEAKTMSEEEAKRRAKKYKEKVLLSELSEEEQKEIKEAEEKLVRTILKYVEEAAK | 10.4
29 | D32I (designed binder) SMEEEVEKAAKEYEKKKKEAIEKHLEKLKAKIKEAAERFLKELEEAAKEYAKDEAKTMSEEEAKRRAKKYKEKVLLSELSEEEQKEIKEAEEKLVRTILKYVEEAAK | 4.83
30 | A51Y (designed binder) SMEEEVEKAAKEYEKKKKEAIEKHLEKLKAKDKEAAERFLKELEEAAKEYYKDEAKTMSEEEAKRRAKKYKEKVLLSELSEEEQKEIKEAEEKLVRTILKYVEEAAK | 0.49
31 | V6D (designed binder) SMEEEDEKAAKEYEKKKKEAIEKHLEKLKAKDKEAAERFLKELEEAAKEYAKDEAKTMSEEEAKRRAKKYKEKVLLSELSEEEQKEIKEAEEKLVRTILKYVEEAAK | 13.8
32 | R38D (designed binder) SMEEEVEKAAKEYEKKKKEAIEKHLEKLKAKDKEAAEDFLKELEEAAKEYAKDEAKTMSEEEAKRRAKKYKEKVLLSELSEEEQKEIKEAEEKLVRTILKYVEEAAK | 3
33 | E62M (designed binder) SMEEEVEKAAKEYEKKKKEAIEKHLEKLKAKDKEAAERFLKELEEAAKEYAKDEAKTMSEEMAKRRAKKYKEKVLLSELSEEEQKEIKEAEEKLVRTILKYVEEAAK | 0.446
34 | K18P (designed binder) SMEEEVEKAAKEYEKKKPEAIEKHLEKLKAKDKEAAERFLKELEEAAKEYAKDEAKTMSEEEAKRRAKKYKEKVLLSELSEEEQKEIKEAEEKLVRTILKYVEEAAK | 5.84
35 | E7W (designed binder) SMEEEVWKAAKEYEKKKKEAIEKHLEKLKAKDKEAAERFLKELEEAAKEYAKDEAKTMSEEEAKRRAKKYKEKVLLSELSEEEQKEIKEAEEKLVRTILKYVEEAAK | 12.5
